In experiment [1] the target is full-length HIV-1 Nef (RP14) (HIV-1). Kind of experiment: cross-linking; purified Nef with glutaraldehyde (0.0%, 0.025%, 0.05%, 0.075%, 0.1%) on ice for 15 minutes; 12% SDS-PAGE, silver stain and western blot with anti-His antibody. (In western blotting, separated proteins are transferred to a membrane and probed.)
For experiment [2] the target is unchanged. The experiment in a line: crystal structure; hanging drop, Nef at ~3.7 mg/ml; 0.1 M Tris pH 8.5, 0.2 M ammonium sulfate, 20% PEG 8000; space group P6(3)22, two chains in the asymmetric unit, tetramer with 4-fold symmetry formed through crystal symmetry; 3.5 Å.

Where “and” joins values, the source holds several entries; their conditions need not be identical. Identical values can stand only once.

For the substance “full-length HIV-1 Nef (RP14) (natural protein)”, the stoichiometry N in experiment [1] is 2 and 4; in experiment [2], 4.

By stoichiometry N is commonly meant a count of units in the complex or per binding partner.

The values above are taken from publication PMC3206816.
